Results as given in FireProtDB (doi:10.1073/pnas.96.20.11283).
Several values for one entry are separate records, joined by “and”; a condition that tells them apart may be missing. Equal entries are not always repeated.

Details: Homo sapiens, pH 4.2, 20 °C, Urea, CD, sodium acetate 2 mM, whole UniProt chain shown

B1: Alpha-lactalbumin wild type, P00709 (protein)
chain: MRFFVPLFLVGILFPAILAKQFTKCELSQLLKDIDGYGGIALPELICTMFHTSGYDTQAIVENNESTEYGLFQISNKLWCKSSQVPQSRNICDISCDKFLDDDITDDIMCAKKILDIKGIDYWLAHKALCTEKLEQWLCEKL
- denaturant m value (Na2SO4 20 mM): 0.88 kcal/mol/M and 0.67 kcal/mol/M
- denaturant midpoint (higher = more stable) (Na2SO4 20 mM): 4.34 M and 5.85 M
- denaturant m value (NaCl 30 mM): 0.58 kcal/mol/M
- denaturant midpoint (higher = more stable) (NaCl 30 mM): 5.43 M
- denaturant midpoint (higher = more stable) (NaClO4 50 mM): 4.62 M and 6.06 M
